Patent US20230272045A1

How the values were obtained:
[1] = molecular target: human vitronectin (human) (UniProt P04004); assay: ELISA
[2] = molecular target: human plasma fibronectin (human) (UniProt P02751); assay: ELISA
[3] = molecular target: human tenascin C (human) (UniProt P24821); assay: ELISA
[4] = molecular target: fibrin matrix (UniProt P02671); assay: cell-based or functional assay
fibrin matrix, sequence (P02671 other isoform, or with tags, fused parts or gaps, chain 1 of 3): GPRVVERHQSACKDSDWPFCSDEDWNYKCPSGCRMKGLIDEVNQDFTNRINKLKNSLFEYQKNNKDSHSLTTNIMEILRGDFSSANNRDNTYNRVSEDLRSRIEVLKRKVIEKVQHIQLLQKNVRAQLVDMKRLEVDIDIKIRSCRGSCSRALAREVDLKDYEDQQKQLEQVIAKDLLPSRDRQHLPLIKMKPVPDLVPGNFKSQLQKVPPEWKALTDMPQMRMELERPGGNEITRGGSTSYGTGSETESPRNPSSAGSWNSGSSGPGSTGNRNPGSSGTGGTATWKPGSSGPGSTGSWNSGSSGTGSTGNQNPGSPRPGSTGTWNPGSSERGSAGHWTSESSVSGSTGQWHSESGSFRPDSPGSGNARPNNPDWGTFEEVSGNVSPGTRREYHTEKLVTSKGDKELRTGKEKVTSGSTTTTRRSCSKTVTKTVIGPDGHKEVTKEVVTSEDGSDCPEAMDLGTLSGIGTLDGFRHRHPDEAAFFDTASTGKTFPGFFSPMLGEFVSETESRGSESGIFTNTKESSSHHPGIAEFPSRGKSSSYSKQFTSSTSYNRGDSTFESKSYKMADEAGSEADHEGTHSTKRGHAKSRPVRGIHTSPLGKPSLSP
fibrin matrix, sequence (P02675 45-491, chain 2 of 3, further chain): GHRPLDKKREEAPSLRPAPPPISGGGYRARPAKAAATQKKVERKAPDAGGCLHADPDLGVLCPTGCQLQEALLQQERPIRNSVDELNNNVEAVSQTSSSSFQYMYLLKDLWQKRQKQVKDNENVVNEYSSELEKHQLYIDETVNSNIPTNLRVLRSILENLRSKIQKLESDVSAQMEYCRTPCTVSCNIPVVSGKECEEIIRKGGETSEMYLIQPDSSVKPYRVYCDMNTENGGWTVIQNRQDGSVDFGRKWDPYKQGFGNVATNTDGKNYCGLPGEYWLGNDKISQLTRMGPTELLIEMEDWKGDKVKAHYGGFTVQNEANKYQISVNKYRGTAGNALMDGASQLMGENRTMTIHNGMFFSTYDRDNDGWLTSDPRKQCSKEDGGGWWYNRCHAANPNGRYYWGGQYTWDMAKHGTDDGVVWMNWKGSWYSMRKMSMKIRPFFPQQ
fibrin matrix, sequence (P02679 other isoform, or with tags, fused parts or gaps, chain 3 of 3, further chain): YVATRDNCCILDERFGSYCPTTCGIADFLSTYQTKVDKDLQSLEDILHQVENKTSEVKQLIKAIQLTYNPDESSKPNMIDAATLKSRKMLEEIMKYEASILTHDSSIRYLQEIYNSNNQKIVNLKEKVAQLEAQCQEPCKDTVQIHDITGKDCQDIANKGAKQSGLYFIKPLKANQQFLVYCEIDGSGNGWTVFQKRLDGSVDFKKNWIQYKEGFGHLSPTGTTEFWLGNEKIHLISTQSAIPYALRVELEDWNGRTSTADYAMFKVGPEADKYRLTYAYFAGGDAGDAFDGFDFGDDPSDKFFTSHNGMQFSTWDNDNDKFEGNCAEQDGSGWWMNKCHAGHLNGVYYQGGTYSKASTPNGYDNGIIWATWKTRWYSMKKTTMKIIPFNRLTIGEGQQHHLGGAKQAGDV

human plasma fibronectin (human), sequence (P02751 other isoform, or with tags, fused parts or gaps): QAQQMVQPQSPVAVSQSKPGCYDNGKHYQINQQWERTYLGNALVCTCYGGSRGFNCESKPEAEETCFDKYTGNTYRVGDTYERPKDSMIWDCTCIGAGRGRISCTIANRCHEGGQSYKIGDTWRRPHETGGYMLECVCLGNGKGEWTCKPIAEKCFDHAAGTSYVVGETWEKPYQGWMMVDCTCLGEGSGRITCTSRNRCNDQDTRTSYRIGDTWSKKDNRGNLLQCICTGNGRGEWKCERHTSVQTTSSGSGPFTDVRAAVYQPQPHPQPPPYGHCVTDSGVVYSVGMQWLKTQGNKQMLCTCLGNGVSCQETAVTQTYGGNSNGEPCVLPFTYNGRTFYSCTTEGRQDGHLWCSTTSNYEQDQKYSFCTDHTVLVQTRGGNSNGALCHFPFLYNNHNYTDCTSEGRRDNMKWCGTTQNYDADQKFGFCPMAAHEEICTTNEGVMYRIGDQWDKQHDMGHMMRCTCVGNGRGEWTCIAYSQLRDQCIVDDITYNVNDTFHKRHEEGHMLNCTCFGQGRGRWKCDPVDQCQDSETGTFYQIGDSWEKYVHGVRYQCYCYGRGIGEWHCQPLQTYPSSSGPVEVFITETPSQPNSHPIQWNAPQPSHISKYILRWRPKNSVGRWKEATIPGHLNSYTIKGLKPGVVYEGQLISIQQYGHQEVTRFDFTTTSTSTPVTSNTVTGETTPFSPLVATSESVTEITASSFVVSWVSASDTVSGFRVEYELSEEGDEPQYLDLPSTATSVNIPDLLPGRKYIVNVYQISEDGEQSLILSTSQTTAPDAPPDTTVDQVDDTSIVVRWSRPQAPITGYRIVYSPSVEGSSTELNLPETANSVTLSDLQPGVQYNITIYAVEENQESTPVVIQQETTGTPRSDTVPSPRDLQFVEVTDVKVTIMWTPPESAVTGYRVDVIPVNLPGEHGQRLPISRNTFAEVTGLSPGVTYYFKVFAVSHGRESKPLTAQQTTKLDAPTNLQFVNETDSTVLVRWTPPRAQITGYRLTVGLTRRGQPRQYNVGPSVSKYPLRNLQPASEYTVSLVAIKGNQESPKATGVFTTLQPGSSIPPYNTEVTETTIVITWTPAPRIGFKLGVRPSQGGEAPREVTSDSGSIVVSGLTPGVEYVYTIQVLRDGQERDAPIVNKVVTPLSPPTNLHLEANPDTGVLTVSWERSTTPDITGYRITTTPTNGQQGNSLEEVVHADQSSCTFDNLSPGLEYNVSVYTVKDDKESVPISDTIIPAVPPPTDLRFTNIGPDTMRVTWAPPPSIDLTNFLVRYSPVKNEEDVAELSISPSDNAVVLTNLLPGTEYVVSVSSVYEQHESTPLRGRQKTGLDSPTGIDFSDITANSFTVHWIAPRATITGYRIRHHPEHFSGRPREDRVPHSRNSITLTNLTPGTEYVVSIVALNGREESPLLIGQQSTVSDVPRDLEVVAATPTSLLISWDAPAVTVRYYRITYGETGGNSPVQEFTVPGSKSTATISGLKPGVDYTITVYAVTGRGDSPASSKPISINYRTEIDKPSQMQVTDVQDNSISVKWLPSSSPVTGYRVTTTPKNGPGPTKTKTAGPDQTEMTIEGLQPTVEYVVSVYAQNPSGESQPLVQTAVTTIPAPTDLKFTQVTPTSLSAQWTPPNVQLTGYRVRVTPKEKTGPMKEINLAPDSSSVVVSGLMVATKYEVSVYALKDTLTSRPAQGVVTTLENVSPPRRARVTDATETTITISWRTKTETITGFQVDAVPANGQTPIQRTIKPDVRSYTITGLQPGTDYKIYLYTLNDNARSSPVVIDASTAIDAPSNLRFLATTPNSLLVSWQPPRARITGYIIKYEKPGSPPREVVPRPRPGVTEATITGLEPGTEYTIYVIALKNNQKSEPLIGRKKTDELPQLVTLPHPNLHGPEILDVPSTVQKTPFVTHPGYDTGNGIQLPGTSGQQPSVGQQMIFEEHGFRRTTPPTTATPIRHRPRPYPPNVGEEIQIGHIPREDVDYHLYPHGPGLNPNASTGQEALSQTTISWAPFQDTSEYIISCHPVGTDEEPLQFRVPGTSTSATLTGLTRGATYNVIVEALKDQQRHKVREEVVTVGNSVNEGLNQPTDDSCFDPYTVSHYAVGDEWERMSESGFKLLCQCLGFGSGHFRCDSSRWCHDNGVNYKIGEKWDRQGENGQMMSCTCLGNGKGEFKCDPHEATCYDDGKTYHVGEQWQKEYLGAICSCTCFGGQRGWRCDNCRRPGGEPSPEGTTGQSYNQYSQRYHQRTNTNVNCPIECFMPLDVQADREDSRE
human vitronectin (human), sequence (P04004 20-478): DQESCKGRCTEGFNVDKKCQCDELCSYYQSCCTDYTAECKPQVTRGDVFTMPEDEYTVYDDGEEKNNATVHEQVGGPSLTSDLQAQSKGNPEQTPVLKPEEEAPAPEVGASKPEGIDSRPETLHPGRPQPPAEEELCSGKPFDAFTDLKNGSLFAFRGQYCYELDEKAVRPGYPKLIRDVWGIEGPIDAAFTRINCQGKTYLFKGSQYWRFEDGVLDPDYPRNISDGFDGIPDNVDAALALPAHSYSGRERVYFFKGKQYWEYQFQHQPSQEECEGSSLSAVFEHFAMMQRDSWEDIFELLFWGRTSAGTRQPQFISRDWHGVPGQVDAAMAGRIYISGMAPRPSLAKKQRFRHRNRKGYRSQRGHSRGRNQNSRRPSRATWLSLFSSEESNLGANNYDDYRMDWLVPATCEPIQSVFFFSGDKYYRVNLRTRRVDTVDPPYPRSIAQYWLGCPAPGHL

Row | Kd [1] [nM] | Kd [2] [nM] | Kd [3] [nM] | release from a fibrin matrix (fraction of the protein dose released) [4] [%] | Substance
1 | 1.9 | 7.9 | 18.1 |  | AREG126-138/PDGF-BB (from UniProt P31240 80-190)
2 |  |  |  | > 60 | PIGF-1 (from UniProt P49763 19-149) (ligand)
